Earlier results as cited in paper PMC10830413.
Like-named read-outs stand apart in the source and are kept apart here.

Experiments:
[1] = target: LPHN3 (UniProt Q9HAR2)
[2] = target: LPHN3 (UniProt Q9HAR2); remark: listed apart in the source

Sequence of UniProt Q9HAR2 (Q9HAR2 20-862): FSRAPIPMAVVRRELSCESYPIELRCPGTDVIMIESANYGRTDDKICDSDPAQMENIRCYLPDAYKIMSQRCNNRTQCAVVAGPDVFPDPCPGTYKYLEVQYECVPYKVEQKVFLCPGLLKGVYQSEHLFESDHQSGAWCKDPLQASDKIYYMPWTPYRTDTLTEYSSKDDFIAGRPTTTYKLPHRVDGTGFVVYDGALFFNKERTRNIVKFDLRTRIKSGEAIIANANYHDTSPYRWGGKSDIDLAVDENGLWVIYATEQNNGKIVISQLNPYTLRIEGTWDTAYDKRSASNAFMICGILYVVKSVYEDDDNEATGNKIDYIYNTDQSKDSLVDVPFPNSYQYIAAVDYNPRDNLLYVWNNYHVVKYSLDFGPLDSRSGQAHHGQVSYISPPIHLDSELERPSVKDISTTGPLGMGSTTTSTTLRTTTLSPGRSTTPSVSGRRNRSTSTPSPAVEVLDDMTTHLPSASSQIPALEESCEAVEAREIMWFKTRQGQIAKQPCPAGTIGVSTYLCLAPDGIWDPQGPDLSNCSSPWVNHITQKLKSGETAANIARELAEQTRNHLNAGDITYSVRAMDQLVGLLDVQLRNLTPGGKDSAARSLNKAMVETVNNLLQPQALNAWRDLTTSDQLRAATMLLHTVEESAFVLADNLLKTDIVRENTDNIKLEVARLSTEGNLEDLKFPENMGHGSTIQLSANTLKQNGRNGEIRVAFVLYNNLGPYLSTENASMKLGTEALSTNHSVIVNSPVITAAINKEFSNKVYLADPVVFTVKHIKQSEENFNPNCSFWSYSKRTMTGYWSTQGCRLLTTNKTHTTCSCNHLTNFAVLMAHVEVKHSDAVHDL

Substance	Kd [1] [nM]	Kd [2] [nM]
TENM2 (from UniProt Q9NT68)	500	–
FLRT3 (from UniProt Q9NZU0)	–	15
